From US20260227403A1 (HENRY M JACKSON FOUNDATION FOR THE ADVANCEMENT OF MILITARY …, published 2026)

Columns and labels:
Test in all cases: ELISA: 500 ng peptide coated per well, 29E4 at 40 ng/mL, HRP goat anti-rabbit Ig 1:16,000, ABS 450 nm, duplicates [CONT. 2]
[1] = target: T1, P2 (alanine substituted, FIG. 3 panel E)
T1 construct: not the overlapping peptide P2 of panel A; also called Q212 to alanine
From the text: (§1) HRP Goat anti-rabbit Ig was applied at 1:16,000 dilution in all reactions.
(§2) Peptides were synthesized to achieve ≥70% HPLC purity by a commercial vendor (GenScript Biotech, Piscataway, NJ). Peptides were reconstituted in either water, or with addition of acetonitrile, methanol, 10% acetic acid, or DMSO, depending on the overall charge of each peptide. Key residues required for mAb binding were probed by ELISA using overlapping peptides, truncated peptides and alanine substituted peptides. Reactions were performed in duplicate using NUNC 96-well flatbottom MaxiSorp plates (Thermo Scientific). After coating each well with 500 ng of peptide in 100 μL coating buffer (50 mM NaHCO₃, pH 9.6), the plates were sealed and incubated at 4° C. overnight. […] Plates were then washed once with wash buffer, incubated with 100 μL mAb 29E4 (serially diluted from 1 mg/mL) for 1 hour at 37° C. Plates were further washed four times with wash buffer, and then incubated at 37° C. with 100 μL of a horse radish peroxidase (HRP)-conjugated secondary antibody against the primary antibody, diluted 1:16,000 according to manufacturer's protocols (KPL, Inc., Gaithersburg, MD). After washing four times with wash buffer, 100 μL of K-Blue Aqueous TMB substrate (Neogen, Lexington, KY) was added to the plates and incubated uncovered for 30 minutes at room temperature. To stop the reaction, 100 μL of 2 N Sulphuric acid was added to each well and absorbance were measured immediately at 450 nm. All dilutions of reagents were performed in ELISA diluent (20% NGS in 1×PBS with 0.1% Triton-X 100).

[2] = target: T2, P4 (alanine substituted, FIG. 3 panel E)
T2 construct: not the overlapping peptide P4 of panel A; also called Q214 to alanine
T2 sequence (peptide, as listed by the source): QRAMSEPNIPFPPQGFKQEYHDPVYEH
From the text: as §1, §2

[3] = target: T3, P5 (alanine substituted, FIG. 3 panel E)
T3 construct: not the overlapping peptide P5 of panel A; also called M215 to alanine
T3 sequence (peptide, as listed by the source): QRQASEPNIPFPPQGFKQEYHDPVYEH
From the text: as §1, §2

[4] = target: T4, P6 (alanine substituted, FIG. 3 panel E)
T4 construct: not the overlapping peptide P6 of panel A; also called S216 to alanine
T4 sequence (peptide, as listed by the source): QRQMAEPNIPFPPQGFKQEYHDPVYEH
From the text: as §1, §2

[5] = target: T5, P11 (alanine substituted, FIG. 3 panel E)
T5 construct: also called P221 to alanine
T5 sequence (peptide, as listed by the source): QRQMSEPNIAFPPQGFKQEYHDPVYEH
From the text: as §1, §2

[6] = target: T6, P14 (alanine substituted, FIG. 3 panel E)
T6 construct: also called P224 to alanine
T6 sequence (peptide, as listed by the source): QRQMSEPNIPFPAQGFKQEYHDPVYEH
From the text: as §1, §2

[7] = target: T7, P15 (alanine substituted, FIG. 3 panel E)
T7 construct: also called Q225 to alanine
T7 sequence (peptide, as listed by the source): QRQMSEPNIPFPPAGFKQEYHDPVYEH
From the text: as §1, §2

[8] = target: T8, P18 (alanine substituted, FIG. 3 panel E)
T8 construct: also called K228 to alanine
T8 sequence (peptide, as listed by the source): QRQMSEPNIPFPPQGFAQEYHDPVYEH
From the text: as §1, §2

[9] = target: T9, P19 (alanine substituted, FIG. 3 panel E)
T9 construct: also called Q229 to alanine
T9 sequence (peptide, as listed by the source): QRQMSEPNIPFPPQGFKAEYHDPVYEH
From the text: as §1, §2

[10] = target: T10, P22 (alanine substituted, FIG. 3 panel E)
T10 construct: also called H232 to alanine
T10 sequence (peptide, as listed by the source): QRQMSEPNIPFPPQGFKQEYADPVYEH
From the text: as §1, §2

[11] = target: T11, P23 (alanine substituted, FIG. 3 panel E)
T11 construct: also called D233 to alanine
T11 sequence (peptide, as listed by the source): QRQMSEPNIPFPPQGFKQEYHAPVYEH
From the text: as §1, §2

[12] = target: T12, P24 (alanine substituted, FIG. 3 panel E)
T12 construct: also called P234 to alanine
T12 sequence (peptide, as listed by the source): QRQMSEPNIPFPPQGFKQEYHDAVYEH
From the text: as §1, §2

[13] = target: T13, P25 (alanine substituted, FIG. 3 panel E)
T13 construct: also called V235 to alanine
T13 sequence (peptide, as listed by the source): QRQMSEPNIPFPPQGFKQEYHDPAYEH
From the text: as §1, §2

[14] = target: T14, P27 (alanine substituted, FIG. 3 panel E)
T14 construct: also called E237 to alanine
T14 sequence (peptide, as listed by the source): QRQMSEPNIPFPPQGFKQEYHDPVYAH
From the text: as §1, §2

[15] = target: T15, alanine substituted peptide with P223 replaced by alanine (P13 of FIG. 3 panel E) (human)
T15 construct: The text names only the residue P223
T15 sequence (peptide, as listed by the source): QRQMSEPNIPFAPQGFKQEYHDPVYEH
From the text: as §1, §2

Measured: binding result

T1 sequence (peptide, as listed by the source): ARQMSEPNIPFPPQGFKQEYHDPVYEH

B1: ETV1 rabbit monoclonal antibody (29E4) (antibody, V domains shown)
VH: QELEESGGDLVKPGASLTLTCTASGFFFSAENHICWVRQAPGKGLEWIGCVYIGSYVGGSGDPYYASWAKGRFTISKTSSTTVTLQMSSLTAADTATYFCARDLGSLWGPGTLVTVSS
VL: DVVMTQTASSVSAAVGGTVTIACQSSQSVYDNNNLAWFQQKPGQPPKRLIYSASTLASGVSSRFKGSGYGTQFTLTISDVQCDDAATYYCVGAFSGYIFVFGGGTEVVVK
notes: constant regions are not; also called 29E4 mAb; ETV1 29E4 mAb
binds: [1] | [2] | [3] | [4] | [5] | [6] | [7] | [8] | [9] | [10] | [11] | [12] | [13] | [14] | [15]
